Where a chain is given by its changes, count along the chain named.
Legend:
Format in all cases: cell-based
[1] = tested on: firefly luciferase expression; assay: Firefly luciferase assay of HEK 293 cells transfected with U1_Gua riboswitch constructs, with or without guanine; conditions: for fold increase of luciferase activity upon guanine treatment: 500 μM guanine
Text: Plasmid constructs: The EGFP gene in pEGFP-C1 vector was replaced with firefly luciferase gene coding sequence to generate a pFLuc vector that contains an SV40 early polyadenylation signal sequence. Oligos containing either wild type or mutant U1 binding site from the 5′ splice site of human DHFR exon 2 and xpt-guanine aptamer sequence followed by the complementary sequence of the last 7 nt of the U1 site sequence were synthesized (IDT) and cloned into the pFLuc vector using the Gibson cloning strategy and kit (NEB).
Transfection and aptamer ligand treatment: HEK 293 cells were transfected as described in Example 1. Four hours after transfection, the media was aspirated, and new media with or without 500 μM guanine was added.
Firefly luciferase assay of cultured cells: Twenty-four hours after the media change, the plates were removed from the incubator, and equilibrated to RT for several minutes on a lab bench, then aspirated. Glo-lysis buffer (Promega, 100 uL, RT) was added, and the plates allowed to remain at RT for at least 5 minutes. Then, the well contents were mixed by 50 uL trituration, and 20 uL of each sample was mixed with 20 μL of bright-glo reagent (Promega) that had been diluted to 10% in glo-lysis buffer. The 96 wells were spaced on an opaque white 384-well plate. Following a 5 min incubation at RT, luminescence was measured using a Tecan machine with 500 mSec read time. The luciferase activity was expressed as mean relative light unit (RLU)±S.D.
Plasmid constructs: SV40 early polyadenylation sequence was replaced with human beta globin polyA sequence in pFLuc vector to generate pFLuc_HBGPA. Oligos containing either wild type or mutant U1 binding site from 5′ ss of human DHFR exon 2 and xpt-guanine aptamer sequence followed by the complementary sequence of last 7 nt of U1 site sequence were synthesized (IDT) and cloned into pFLuc_HBGPA vector using Gibson cloning strategy and kit (NEB).
Transfection and luciferase assay were as described in Example 7.

[2] = tested on: Renilla luciferase expression; assay: Renilla luciferase assay of HEK 293 cells transfected with U1_theo riboswitch constructs, with or without theophylline
Protocol: Transfection: 3.5×10^4 HEK 293 cells were plated in a 96-well flat bottom plate the day before transfection. Plasmid DNA (500 ng) was added to a tube or a 96-well U-bottom plate. Separately, TransIT-293 reagent (Mirus; 1.4 μl) was added to 50 μl Opti-mem I media (Life Technologies), and allowed to sit for 5 minutes at room temperature (“RT”). Then, 50 μl of this diluted transfection reagent was added to the DNA, mixed, and incubated at RT for 20 min. Finally, 7 μl of this solution was added to a well of cells in the 96-well plate.
Renilla luciferase assay of cultured cells: 24 hours after the media change, plates were removed from the incubator, and equilibrated to RT for several minutes on a lab bench, and the media aspirated. Glo-lysis buffer (Promega, 100 μl, RT) was added, and the plates allowed to remain at room temp for at least 5 minutes. Then, the well contents were mixed by 50 μl trituration, and 20 μl of each well was mixed with 20 μl of Renilla-glo reagent in a solid-white 384-well plate. Ten minutes later, luminescence was measured using a Tecan machine with 500 msec read time. The luciferase activity was expressed as mean relative light unit (RLU)±SD.
Oligonucleotides containing either the full length of sequences of the stem from the stem-loop structure and theophylline aptamer or the truncated sequences of the stem, were synthesized (IDT) and cloned into pRL-SV40 vector using the Gibson Assembly Cloning Kit (NEB). Construct sequences were verified by DNA sequencing (Genewiz).
Transfection and aptamer ligand treatment: HEK 293 cells were transfected as described in Example 1. Four hours after transfection, the media was aspirated, and new media with or without 3 mM theophylline was added. A Renilla luciferase assay was performed 20 to 24 hours after theophylline treatment as described in Example 1. The induction fold was expressed as the quotient of luciferase activity obtained in the presence of aptamer ligand divided by the value obtained in the absence of the aptamer ligand.
Oligos containing 4 copies of the U1_theo_8_1 sequence in tandem were synthesized (IDT) and cloned using Gibson strategy and cloning kit (NEB). HEK 293 cells were transfected and Renilla luciferase assay was performed as described in Example 4.

[3] = tested on: Renilla luciferase expression; assay: as above; remark: listed apart in the source

B1: U1_Gua_2: U1 site linked with xpt-guanine aptamer, 110 nt upstream of SV40 early poly(A) in pFLuc (nucleic acid)
DNA: TCATAAAGGCCAAGAAGGGCGGAAAGATCGCCGTGTAAGCCATACCACATTTGTAGAGGTTTTACTTGCTTTAAAAAACCTCCCACACCTAAGGTAATGTATAATCGCGTGGATATGGCACGCAAGTTTCTACCGGGCACCGTAAATGTCCGACTACATTACCCCCCTGAACCTGAAACATAAAATGAATGCAATTGTTGTTGTTAACTTGTTTATTGCAGCTTATAATGGTTACAAATAAAGCAATAGCATCACAAATTTCACAAATAAAGCATTTTTTTCACTGCATTCTAGTTGTGGTTTGTCCAAACTCATCAATGTATCTTAA
modifications: in pFLuc; U1_Gua_2 wt in pFLuc
notes: U1 site linked with xpt-guanine aptamer, 110 nt upstream of SV40 early poly(A) in pFLuc
With B1 the “fold increase of luciferase activity upon guanine treatment” value (“fold increase” below) ([1]; SV40 early poly(A) signal) was 2.0 fold.

B2: U1_Gua_1: DHFR exon 2 5′ splice site U1 site linked with xpt-guanine aptamer, 149 nt upstream of SV40 early poly(A) in pFLuc (nucleic acid)
DNA: TCATAAAGGCCAAGAAGGGCGGAAAGATCGCCGTGTAAGCCATACCACATTAAGGTAATGTATAATCGCGTGGATATGGCACGCAAGTTTCTACCGGGCACCGTAAATGTCCGACTACATTACTGTAGAGGTTTTACTTGCTTTAAAAAACCTCCCACACCTCCCCCTGAACCTGAAACATAAAATGAATGCAATTGTTGTTGTTAACTTGTTTATTGCAGCTTATAATGGTTACAAATAAAGCAATAGCATCACAAATTTCACAAATAAAGCATTTTTTTCACTGCATTCTAGTTGTGGTTTGTCCAAACTCATCAATGTATCTTAA
modifications: in pFLuc; U1_Gua_1 wt in pFLuc
notes: DHFR exon 2 5′ splice site U1 site linked with xpt-guanine aptamer, 149 nt upstream of SV40 early poly(A) in pFLuc
In the case of B2, the “fold increase” value ([1]; SV40 early poly(A) signal) is reported as 2.4 fold.

B3: U1_Gua_3: U1 site linked with xpt-guanine aptamer, 74 nt upstream of SV40 early poly(A) in pFLuc (nucleic acid)
DNA: TCATAAAGGCCAAGAAGGGCGGAAAGATCGCCGTGTAAGCCATACCACATTTGTAGAGGTTTTACTTGCTTTAAAAAACCTCCCACACCTCCCCCTGAACCTGAAACATAAAATGAATGCAATTGTAAGGTAATGTATAATCGCGTGGATATGGCACGCAAGTTTCTACCGGGCACCGTAAATGTCCGACTACATTACTGTTGTTAACTTGTTTATTGCAGCTTATAATGGTTACAAATAAAGCAATAGCATCACAAATTTCACAAATAAAGCATTTTTTTCACTGCATTCTAGTTGTGGTTTGTCCAAACTCATCAATGTATCTTAA
modifications: in pFLuc; U1_Gua_3 wt in pFLuc
notes: U1 site linked with xpt-guanine aptamer, 74 nt upstream of SV40 early poly(A) in pFLuc
In the case of B3, the “fold increase” value ([1]; SV40 early poly(A) signal) is reported as 1.7 fold.

B4: 4 copies of U1-theo_8_1: 4 copies of the U1_theo_8_1 sequence in tandem in the 3′ UTR of pRL-SV40 (nucleic acid)
DNA: TCAAATCGTTCGTTGAGCGAGTTCTCAAAAATGAACAATAATTCTAGAGCGGCCGCTTCGAGCAGACATGATAAGATACATTGATGAGTTTGGACAAACCAAACCCAGGTAAGTGATACCAGCCGAAAGGCCCTTGGCAGCACTTACCTGGACAACTAGAATGCAGTGAAAAAAGAGTTTGGACAAACCAAACCCAGGTAAGTGATACCAGCCGAAAGGCCCTTGGCAGCACTTACCTGGACAACTAGAATGCAGTGAAAAAAATGCGAGTTTGGACAAACCAAACCCAGGTAAGTGATACCAGCCGAAAGGCCCTTGGCAGCACTTACCTGGACAACTAGAATGCAGTGAAAAAAATGCTTTATTTGTGAGAGTTTGGACAAACCAAACCCAGGTAAGTGATACCAGCCGAAAGGCCCTTGGCAGCACTTACCTGGACAACTAGAATGCAGTGAAAAAAATGCTTTATTTGTGAAATTTGTGATGCTATTGCTTTATTTGTAACCATTATAAGCTGCAATAAACAAGTTAACAACAAC
modifications: in pRL-SV40 3′ UTR; 4xU1_theo_8_1 in pRL-SV40
With B4 the “reduction of basal level expression compared to single copy of U1_theo_8_1” value ([2]; no theophylline) was 83%, the “change of luciferase activity after theophylline treatment (in words)” value ([2]; with vs without theophylline) was “increased the luciferase activity in a dose-dependent manner” and the “maximal induction fold of luciferase activity” value ([3]; 6 mM theophylline) was 4.3 fold. The “luciferase activity relative to 87-9 SL control vector” value ([3]; upon theophylline treatment, maximal at 6 mM) was 40%.

B5: wtU1_Gua_HBGPA: wild type U1 site with xpt-guanine aptamer in pFLuc_HBGPA (human beta globin polyA sequence) (nucleic acid)
DNA: TCATAAAGGCCAAGAAGGGCGGAAAGATCGCCGTGTAAGGATCCAAGCTTATCGATACCGTCGACCTCGAGGTAATGTATAATCGCGTGGATATGGCACGCAAGTTTCTACCGGGCACCGTAAATGTCCGACTACATTACGGCCCAGATCTAATTCACCCCACCAGTGCAGGCTGCCTATCAGAAAGTGGTGGCTGGTGTGGCTAATGCCCTGGCCCACAAGTATCACTAAGCTCGCTTTCTTGCTGTCCAATTTCTATTAAAGGTTCCTTTGTTCCCTAAGTCCAACTACTAAACTGGGGGATATTATGAAGGGCCTTGAGCATCTGGATTCTGCCTAATAAAAAACATTTATTTTCATTGCAATGATGTATTT
modifications: in pFLuc_HBGPA; wtU1_Gua_HBGPA
In the case of B5, the “fold increase” value ([1]; human beta globin polyA sequence (pFLuc_HBGPA)) is reported as 2.1 fold.

B6: mutU1_Gua_HBGPA: mutant U1 site with xpt-guanine aptamer in pFLuc_HBGPA (nucleic acid)
DNA: B5 DNA with G71T, T73G, G77C
modifications: in pFLuc_HBGPA; mutU1_Gua_HBGPA
For B6, the “induction of luciferase activity upon guanine treatment (in words)” value ([1]; guanine vs untreated, human beta globin polyA sequence) was “didn't induce luciferase activity”.

Source: patent publication US11697815B2, “Regulation of gene expression through aptamer-modulated polyadenylation” (MeiraGTx UK II Limited, priority 2016, dated 2023)
